Results published in article PMC6648891.

Biological target: T1, FOXC2 DBD (Homo sapiens, UniProt Q99958 60-198)
T1 sequence: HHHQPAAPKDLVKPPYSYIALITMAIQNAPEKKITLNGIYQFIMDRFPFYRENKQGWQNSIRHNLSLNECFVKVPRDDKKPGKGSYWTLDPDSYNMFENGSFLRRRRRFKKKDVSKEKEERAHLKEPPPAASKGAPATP
Test: EMSA

B1: 16 bp EMSA DNA (dsDNA)
DNA 1: CAAGGTAAACAAACCA
DNA 2: TGGTTTGTTTACCTTG
With B1 the Kd was 26.4 µM.
